Like-named read-outs stand apart in the source and are kept apart here.
Legend:
apoptotic cells = assay: Effect of glycoprotein synthesis/traffic inhibitors on glycoprotein expression in apoptotic cells; format: cell-based
[1] = test system: murine leukemia L1210 cells; assay: Effect of cisplatin concentration on quantity of live cells
Procedure: Apoptosis of L1210 cells was induced by cisplatin (0.5 and 0.1 μg/ml, or 5.0 μg/ml, Ebewe, Austria) (56,57); apoptosis of L929 cells was induced by hyperthermia 43° C. […] Cell viability was controlled by trypan-blue (0.1% w/v solution) exclusion test, and cells were counted in hemocytometric chamber under light microscope.

L1210 cells = format: binding, murine
[2] = test system: L929, L1210, MCF-7 (wt), MCF-7 (DOX/R), and Jurkat cell lines; assay: Lectinocytochemical analysis, summary over the studied cell lines; format: binding
[3] = test system: murine leukemia L1210 cells; format: cell-based
Procedure: Mixtures were resuspended once and 10 μl were transferred on slide glass, and examined under microscope.
Mannose-specific PMRL and PSL lectins caused agglutination of normal cells in concentrations of 625 and 1000 μg/ml, respectively and agglutination of apoptotic cells in concentrations of 78 and 125 μg/ml, respectively (FIG. 11). Thus, lectin concentration needed for agglutination of apoptotic cells was approximately equal to and/or equal to ⅛ (625 against 78 and 1000 against 125) of that needed to agglutinate the non-apoptotic cells. It is believed that there is an 8-fold increase in mannose-containing glycoconjugate expression in the apoptotic cells comparing to intact cells. Similar results were obtained for galactose-specific lectins.

[4] = test system: human adenocarcinoma cells of MCF-7 line; assay: Lectinocytochemical analysis with HRP-labeled lectins; format: binding
Procedure: (§1) Lectin cytochemical analysis was conducted as described previously by Herrington & Mc Gee (Herrington C S, McGee JO'D. Diagnostic molecular pathology. Oxford: IRL Press; 1992), with some modifications. Cell smears were fixed in a mixture of acetone, methanol, and formalin (19:19:2) for 90 s at room temperature and then air dried. Smears were washed twice with Tris saline buffer (TSB) for 2 min and incubated with HRP-labeled lectins (50 μg/ml) for 1 h at room temperature or overnight at 4° C. If necessary, the appropriate sugar inhibitor (0.1 M solution) was added to the incubation mixture. Smears were washed twice with TSB for 10 min and incubated with 0.5 mg/ml of 3,3′-diaminobenzidin (Sigma Chemical Co.) and 4 μl/ml of H2O2 in TSB for 5 min. In some experiments a NiCl2 solution was added to the incubation mixture (final concentration, 1 mg/ml) to improve cell contrast.
(§2) Alternatively, smears were washed in distilled water, air dried and photographed. Densitometric analysis was performed on an AMD-based IBM PC computer using ImageJ (Wayne Rasband, National Institutes of Health, USA) program support and the UTHSCSA ImageTool program (University of Texas Health Science Center in San Antonio, Tex.).

[5] = test system: human leukemia Jurkat cells; assay: as above; format: binding
Procedure: as §1, §2

[6] = test system: murine fibroblasts of L929 line; assay: as above; format: binding
[7] = test system: human lung carcinoma A549 cells; assay: Fluorescent microscopy with fluorescent lectin conjugate; format: binding

For `O=CC[C@@H](O)[C@H](O)[C@H](O)CO` [2-deoxy-D-glucose], the “effect on the increase in expression of α-D-mannose- and β-D-galactose-containing glycoprotein(s) in apoptotic cells” value (from here on “effect on the increase in expression”) (apoptotic cells) was “did not diminish”.

For `N.N.[Cl][Pt][Cl]` [cisplatin, cis-diamminodichloroplatinum], the “effect of increasing concentration on live cell number” value [1] was “decrease in live cell number”.

With `OC[C@H]1O[C@H](O[C@H]2[C@H](O)[C@@H](O)C(O)O[C@@H]2CO)[C@H](O)[C@@H](O)[C@H]1O` (stereo partly drawn) [lactose, 4-O-(α-D-galactopyranosyl)-D-glucopyranose, reference compound] the “inhibition of lectin binding by specific sugar inhibitor” value (L1210 cells; α-MMan for PSL, lactose for RCA-120) was “substantial”.

In the case of `CC[C@@]1([C@@H]2O[C@@H]([C@H]3O[C@@](O)(CO)[C@H](C)C[C@@H]3C)C[C@@H]2C)CC[C@H]([C@]2(C)CC[C@]3(C[C@H](O)[C@@H](C)[C@@H]([C@@H](C)[C@@H](OC)[C@H](C)C(=O)O)O3)O2)O1` [monensine], the “effect on the increase in expression” value (apoptotic cells) is reported as “did not diminish”.

With `CO[C@H]1O[C@H](CO)[C@@H](O)[C@H](O)[C@@H]1O` [α-MMan, α-Methyl-D-mannopyranoside, reference compound] the “inhibition of lectin binding by specific sugar inhibitor” value (L1210 cells) was “almost absolute abolishment”.

For tunicamycin, the “effect on the increase in expression” value (apoptotic cells) was “did not diminish”.

B1: PSL: Pisum sativum lectin, α-D-mannose-specific (protein, UniProt P02867 31-217; P02867 218-275, looked up)
Lectin beta chain: TETTSFLITKFSPDQQNLIFQGDGYTTKEKLTLTKAVKNTVGRALYSSPIHIWDRETGNVANFVTSFTFVINAPNSYNVADGFTFFIAPVDTKPQTGGGYLGVFNSAEYDKTTQTVAVEFDTFYNAAWDPSNRDRHIGIDVNSIKSVNTKSWKLQNGEEANVVIAFNAATNVLTVSLTYPNSLEEEN
Lectin alpha chain: VTSYTLSDVVSLKDVVPEWVRIGFSATTGAEYAAHEVLSWSFHSELSGTSSSKQAADA
With B1 the “lectin binding with apoptotic cells compared to non-apoptotic cells” value [2] was “increased bidding”, the “binding by apoptotic cells compared with normal cells” value (L1210 cells) was “much better bound” and the “lectin binding of cells pretreated 2 h with non-labeled lectin vs untreated, stained with corresponding HRP-labeled lectin” value (L1210 cells) was “decrease”. For the same molecule, the “lectin concentration needed for agglutination of apoptotic cells as fraction of that needed for non-apoptotic cells” value ([3]; L1210 cells) was “⅛”, the “minimal lectin concentration needed to induce noticeable agglutination” value ([3]; apoptotic L1210 cells) was 125 µg/mL and the “minimal lectin concentration needed to induce noticeable agglutination” value ([3]; normal L1210 cells) was 1000 µg/mL. For the same molecule, the “lectin binding, apoptotic vs non-apoptotic cells” value [4] was “increase in binding”, the “lectin binding, apoptotic vs normal cells” value [4] was “statistically insignificant” and the “lectin binding, apoptotic vs non-apoptotic cells” value [5] was “stronger”. For the same molecule, the “lectin binding, apoptotic vs normal cells” value ([6]; L929) was “significantly stronger binding”, the “staining, apoptotic vs non-apoptotic cells” value ([6]; L929, etoposide 10 μM, 72 h) was “more intensive staining” and the “lectin binding, apoptotic vs non-apoptotic cells” value ([6]; L929, hyperthermia 43° C., 3h, detached by rubbing) was “increased binding”. The “lectin binding, apoptotic vs intact cells” value ([6]; L929, hyperthermia, trypsinization) was “significantly stronger”.

B2: FITC-PSL: FITC-labeled PSL lectin conjugate (conjugate, UniProt P02867 31-217; P02867 218-275, looked up)
Lectin beta chain: TETTSFLITKFSPDQQNLIFQGDGYTTKEKLTLTKAVKNTVGRALYSSPIHIWDRETGNVANFVTSFTFVINAPNSYNVADGFTFFIAPVDTKPQTGGGYLGVFNSAEYDKTTQTVAVEFDTFYNAAWDPSNRDRHIGIDVNSIKSVNTKSWKLQNGEEANVVIAFNAATNVLTVSLTYPNSLEEEN
Lectin alpha chain: VTSYTLSDVVSLKDVVPEWVRIGFSATTGAEYAAHEVLSWSFHSELSGTSSSKQAADA
modifications: FITC label
notes: FITC-labeled PSL lectin conjugate
In the case of B2, the “binding of labeled lectin compared to untreated cells or cells with onset of apoptosis” value ([7]; A549, 5 μg/ml cisplatin 24 hours, apoptosis in almost all cells (FIG. 18 lower row)) is reported as “significantly higher”, the “binding of labeled lectin compared to untreated cells” value ([7]; A549, 5 μg/ml cisplatin 24 hours, beginning of apoptotic cell death (FIG. 18 middle row)) is reported as “significantly stronger” and the “binding of labeled lectin” value ([7]; untreated A549 cells) is reported as “did not bind”.

Reference: US20090053740A1, “AGGLUTINATION-BASED METHOD FOR FAST DETECTION, ISOLATION AND QUANTIFICATION OF APOPTOTIC CELLS” (CEDARS-SINAI MEDICAL CENTER, priority 2005, published 2009)
